Tests used:
[1] = test system: Smn knock-down NSC-34 motor neuronal cells (sh_Smn_519-FM5S clone); assay: Apoptotic cell death (cells with condensed nuclei, Hoechst 33342) in Smn knock-down motor neuronal cells; format: cell-based, mouse; conditions: 48 hours after the switch to DMed
Description: The psiRNA-hH1neo G2 (InvivoGen) and sh_Smn_519 (Shafey et al. Hypomorphic Smn knockdown C2C12 myoblasts reveal intrinsic defects in myoblast fusion and myotube morphology, 2005, Exp Cell Res 311:49-61) constructs were transfected into the NSC-34 cells using FuGENE HD Transfection Reagent (Promega) according to the manufacturer's instructions. Forty-eight hours after the transfection, cells were subject to drug selection with 1 mg/ml G418 (Sigma-Aldrich) to obtain stably transfected cell lines. Two weeks after the transfection, single clones were picked and expanded in a DMEM/10% FBS/G418-based medium to obtain the psiRNA and sh_Smn_519 NSC-34 clonal cell lines, respectively. […]
Twenty-four hours after plating, psiRNA and sh_Smn_519 NSC-34 stable clones were treated with various concentrations of transducible fusion protein/peptide (3 hours). […] Neurite outgrowth and/or cell death were subsequently analyzed (see "Immunocytochemistry") .
Cells were rinsed in phosphate-buffered saline (PBS) and fixed in 4% PFA for 20 min. […] The number of cells showing condensed nuclei was counted as previously described.
Subsequently, the neuroprotective activity of the two peptides was evaluated. […] Forty-height hours after the switch to DMed, the impact of the two TAT48-57-fusion peptides towards cell death was determined in terms of reduction in the number of cells with condensed nuclei. […]

[2] = test system: Smn knock-down NSC-34 motor neuronal cells (sh_Smn_519-FM5S clone); assay: Neuritogenesis and neurite outgrowth (morphometric analysis, β-tubulin III immunostaining) in Smn knock-down motor neuronal cells; format: cell-based, mouse
Description: The psiRNA-hH1neo G2 (InvivoGen) and sh_Smn_519 (Shafey et al. Hypomorphic Smn knockdown C2C12 myoblasts reveal intrinsic defects in myoblast fusion and myotube morphology, 2005, Exp Cell Res 311:49-61) constructs were transfected into the NSC-34 cells using FuGENE HD Transfection Reagent (Promega) according to the manufacturer's instructions. Forty-eight hours after the transfection, cells were subject to drug selection with 1 mg/ml G418 (Sigma-Aldrich) to obtain stably transfected cell lines. Two weeks after the transfection, single clones were picked and expanded in a DMEM/10% FBS/G418-based medium to obtain the psiRNA and sh_Smn_519 NSC-34 clonal cell lines, respectively. To induce differentiation, clones were maintained in culture with differentiation medium (DMed) (1:1 DMEM plus Ham's F12, 1% FBS, 1% penicillin/streptomycin, and 1% modified Eagle's medium nonessential amino acids; see 48).
Twenty-four hours after plating, psiRNA and sh_Smn_519 NSC-34 stable clones were treated with various concentrations of transducible fusion protein/peptide (3 hours). Protein/peptide in excess were subsequently removed and cells were maintained in culture in DMed for 24 and 48 hours. Cells were then fixed and stained, as described below. Neurite outgrowth and/or cell death were subsequently analyzed (see "Immunocytochemistry") .
For immunostaining, cells were incubated for 1 hour with a blocking/permeabilizing solution (5% Serum, 0.1% Triton X-100, in PBS) at room temperature. To evaluated neurite outgrowth, cells were immunostained using a mouse antibody to β-tubulin isotype III (Sigma-Aldrich). Neurite length was measured according to a protocol previously established in our laboratory using ImageJ software (National Institutes of Health) and NeuronJ plug-in. Briefly, only processes as long as twofold the average cell body dimension were considered neurites and measured. […] A total of about 100 cells per group were analyzed. […]

B1: TAT48-57-SMN^235-294: fusion peptide of carrier peptide TAT48-57 (SEQ ID NO: 1) and SMN^235-294 carboxy-terminal domain (SEQ ID NO: 29) as active peptide portion (peptide, listed as Homo sapiens)
chain: GRKKRRQRRRPFPSGPPIIPPPPPICPDSLDDADALGSMLISWYMSGYHTGYYMGFRQNQKEGRCSHSLN
modifications: HIV-1; Fragment of the full-length human SMN protein, i.e. the SMN235-294 carboxy-terminal domain
- diminished the number of cells with condensed nuclei ([1]; 100 nM, sh_Smn_519-FM5S cells, versus untreated cells): ~45%
- concentrations significantly protective towards apoptotic cell death ([1]; sh_SMN_519-FM5S cells): 1 to 100 nM
- diminished the number of sh_Smn_519-FM5S cells without neurites ([2]; 10 nM, versus untreated sh_SMN_519-FM5S cells, 24 hours after the switch to DMed): ~40%
- concentration with significant effect on number of cells without neurites and mean length of the longest neurite per cell ([2]; sh_Smn_519-FM5S clone, 3 hours pre-incubation, then differentiating conditions (DMed)): above 10 nM
- increased the mean length of the longest neurite per cell ([2]; sh_Smn_519-FM5S clone, apparently 10 nM, versus untreated cells, 24 hours after the switch to DMed): 30%
